Source: US20170174700A1

Experiments:
[1] = biological target: streptavidin (UniProt P22629); assay: release from M280 Streptavidin Dynabeads by 5 mM biotin or bis-biotin, fluorescence of supernatant
[2] = biological target: streptavidin (UniProt P22629); assay: release from streptavidin beads by biotin
[3] = biological target: streptavidin (UniProt P22629); assay: BLI (Octet), streptavidin biosensor tips, conjugate in solution, 25 C

Chain of streptavidin (P22629 37-163 limits assumed): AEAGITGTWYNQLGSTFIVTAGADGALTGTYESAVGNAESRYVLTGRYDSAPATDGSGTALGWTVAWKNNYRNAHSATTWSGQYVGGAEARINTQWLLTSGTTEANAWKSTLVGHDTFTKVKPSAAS

Detachment [1]	Detach. [2]	Kd [3]	koff [3]	kon [3]	Substance
85%	–	–	–	–	18-Ab (goat anti-mouse IgG linked to biotin derivative 18) (antibody)
–	0%	0.00595 pM	1.43e-07 s⁻¹	2.41e+07 M⁻¹ s⁻¹	Biotin-Ab (antibody)
16%	–	–	–	–	DSB-X-Ab (goat anti-mouse IgG linked to DSB-X) (antibody)
